Laboratory results taken from patent publication US20230227559A1.

Target: His-tagged ectodomains of hFcγRIIIA variant V158 (human) (UniProt P08637)
Assay: SPR (ProteON), His-tagged hFcγRIIIA V158 ectodomains on chip, mAb injected

Chain of His-tagged ectodomains of hFcγRIIIA variant V158 (human) (P08637 other isoform, or with tags, fused parts or gaps mutant): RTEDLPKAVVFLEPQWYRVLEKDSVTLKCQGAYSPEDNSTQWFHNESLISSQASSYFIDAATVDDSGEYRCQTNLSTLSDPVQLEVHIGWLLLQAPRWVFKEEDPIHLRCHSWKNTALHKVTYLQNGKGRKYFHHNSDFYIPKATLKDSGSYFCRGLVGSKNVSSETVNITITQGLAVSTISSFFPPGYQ

Kd [nM]	koff [s⁻¹]	kon [M⁻¹ s⁻¹]	Substance
2.88	0.0003	110000	Chimeric 3G8 hIgG1 N297A format (antibody)
2.1	0.00021	300000	Chimeric 3G8 hIgG1 (antibody)
